According to patent US20190321401A1 (JUNO THERAPEUTICS, published 2019):

Tests used:
[1] = biological target: T1, HPV 16 E6(29-38)-peptide-MHC tetramer complex (human papillomavirus 16 (HPV16); human); test: flow cytometry, peptide-MHC tetramer staining of TCR-transduced primary human T cells;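 note: normal donor T cells activated with anti-CD3/anti-CD28, then lentivirally transduced with TCRs, with mock-transduced cells as control, co-stained for the transduction marker and CD8, tetramers presented by HLA-A02:01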
T1 construct: also called E6(29-38)-specific tetramer
Protocol: (§1) CD8+ and CD4+ T cells were isolated from normal human donors and were stimulated with anti-CD3/anti-CD28 reagent, and then were transduced with a lentiviral preparation encoding various TCRs, or were subjected to a mock transduction control (cells treated under the same conditions used for lentiviral transduction but without addition of lentivirus). Following transduction, the cells were cultured in media containing human serum and cytokines.
(§2) After transduction, the cells were assessed by flow cytometry for staining with an antibody that recognized the surrogate marker, an anti-CD8 antibody, and a HPV 16 E6(29-38)- or HPV16 E7(11-19)-peptide-MHC tetramer complex. […] The reference TCR contains a mouse constant region.
(§3) Column 3 and 4 sets forth the percentage of CD8+ cells and CD8− cells (CD4+ cells) positive for E7(11-19)-specific tetramer staining in flow cytometry. Column 5 and 6 sets forth the percentage of CD8+ cells and CD8− cells (CD4+ cells) positive for E6(29-38)-specific tetramer staining in flow cytometry.

[2] = biological target: T2, HPV16 E7(11-19)-peptide-MHC tetramer complex (human papillomavirus 16 (HPV16); human); test: as above
T2 construct: also called E7(11-19)-specific tetramer; MHC/E7(11-19) peptide tetramer
Protocol: as §1, §2, §3

| Binder | % of CD8+ cells positive for E6(29-38) tetramer staining [1] [%] | % of CD8- (CD4+) cells positive for E6(29-38) tetramer staining [1] [%] | % of CD8+ cells positive for E7(11-19) tetramer staining [2] [%] | % of CD8- (CD4+) cells positive for E7(11-19) tetramer staining [2] [%] |
| --- | --- | --- | --- | --- |
| TCR 56 (mouse constant regions) (TCR, V domains shown, Human variable regions on mouse constant regions with added cysteines (Calpha Thr48Cys, Cbeta Ser57Cys); Entries are the full chains without signal peptide) V domain 1: GQNIDQPTEMTATEGAIVQINCTYQTSGFNGLFWYQQHAGEAPTFLSYNVLDGLEEKGRFSSFLSRSKGYSYLLLKELQMKDSASYLCAVRDWGYGGATNKLIFGTGTLLAVQP V domain 2: NAGVMQNPRHLVRRRGQEARLRCSPMKGHSHVYWYRQLPEEGLKFMVYLQKENIIDESGMPKERFSAEFPKEGPSILRIQQVVRGDSAAYFCASSPDESRDSNQPQHFGDGTRLSILE | 0.07 | 0.12 | 0.05 | 0.13 |
| TCR 58 (mouse constant regions) (TCR, V domains shown) V domain 1: RKEVEQDPGPFNVPEGATVAFNCTYSNSASQSFFWYRQDCRKEPKLLMSVYSSGNEDGRFTAQLNRASQYISLLIRDSKLSDSATYLCVVNRDNYGQNFVFGPGTRLSVLP V domain 2: EPEVTQTPSHQVTQMGQEVILRCVPISNHLYFYWYRQILGQKVEFLVSFYNNEISEKSEIFDDQFSVERPDGSNFTLKIRSTKLEDSAMYFCASTPRSSYEQYFGPGTRLTVTE | 0.14 | 0.11 | 9.91 | 0.1 |
| TCR 61 (mouse constant regions) (TCR, V domains shown) V domain 1: QKEVEQNSGPLSVPEGAIASLNCTYSDRGSQSFFWYRQYSGKSPELIMFIYSNGDKEDGRFTAQLNKASQYVSLLIRDSQPSDSATYLCAVNIENNNARLMFGDGTQLVVKP V domain 2: EPEVTQTPSHQVTQMGQEVILRCVPISNHLYFYWYRQILGQKVEFLVSFYNNEISEKSEIFDDQFSVERPDGSNFTLKIRSTKLEDSAMYFCASTKRFSYEQYFGPGTRLTVTE | 0.15 | 0.12 | 17.2 | 0.13 |
| TCR 59 (mouse constant regions) (TCR, V domains shown) V domain 1: GQQVMQIPQYQHVQEGEDFTTYCNSSTTLSNIQWYKQRPGGHPVFLIQLVKSGEVKKQKRLTFQFGEAKKNSSLHITATQTTDVGTYFCAPKREYGNKLVFGAGTILRVKS V domain 2: EPEVTQTPSHQVTQMGQEVILRCVPISNHLYFYWYRQILGQKVEFLVSFYNNEISEKSEIFDDQFSVERPDGSNFTLKIRSTKLEDSAMYFCAYSGRASYEQYFGPGTRLTVTE | 0.11 | 0.16 | 28 | 0.16 |
| TCR 60 (mouse constant regions) (TCR, V domains shown) V domain 1: QKEVEQNSGPLSVPEGAIASLNCTYSDRGSQSFFWYRQYSGKSPELIMFIYSNGDKEDGRFTAQLNKASQYVSLLIRDSQPSDSATYLCAVNMLGSGGSNYKLTFGKGTLLTVNP V domain 2: EPEVTQTPSHQVTQMGQEVILRCVPISNHLYFYWYRQILGQKVEFLVSFYNNEISEKSEIFDDQFSVERPDGSNFTLKIRSTKLEDSAMYFCAISRTVSYEQYFGPGTRLTVTE | 0.15 | 0.07 | 21.5 | 0.13 |
| TCR 65 (mouse constant regions) (TCR, V domains shown) V domain 1: EDQVTQSPEALRLQEGESSSLNCSYTVSGLRGLFWYRQDPGKGPEFLFTLYSAGEEKEKERLKATLTKKESFLHITAPKPEDSATYLCAVQAERGSTLGRLYFGRGTQLTVWP V domain 2: DVKVTQSSRYLVKRTGEKVFLECVQDMDHENMFWYRQDPGLGLRLIYFSYDVKMKEKGDIPEGYSVSREKKERFSLILESASTNQTSMYLCASSLWGRRNTGELFFGEGSRLTVLE | – | – | 0.26 | 0.07 |
